Experimental data taken from patent US20200017592A1 (Regeneron, published 2020).
Residue numbers refer to the chain shown, from its start.

T1: in-line fusion protein of human IL-36R extracellular domain and IL1RAcP extracellular domain expressed with … (human; mouse, UniProt Q9HB29 20-337; Q9NPH3 21-359, limits assumed)
T1 construct: not shown: mouse IgG2a Fc
T1 sequence (looked up): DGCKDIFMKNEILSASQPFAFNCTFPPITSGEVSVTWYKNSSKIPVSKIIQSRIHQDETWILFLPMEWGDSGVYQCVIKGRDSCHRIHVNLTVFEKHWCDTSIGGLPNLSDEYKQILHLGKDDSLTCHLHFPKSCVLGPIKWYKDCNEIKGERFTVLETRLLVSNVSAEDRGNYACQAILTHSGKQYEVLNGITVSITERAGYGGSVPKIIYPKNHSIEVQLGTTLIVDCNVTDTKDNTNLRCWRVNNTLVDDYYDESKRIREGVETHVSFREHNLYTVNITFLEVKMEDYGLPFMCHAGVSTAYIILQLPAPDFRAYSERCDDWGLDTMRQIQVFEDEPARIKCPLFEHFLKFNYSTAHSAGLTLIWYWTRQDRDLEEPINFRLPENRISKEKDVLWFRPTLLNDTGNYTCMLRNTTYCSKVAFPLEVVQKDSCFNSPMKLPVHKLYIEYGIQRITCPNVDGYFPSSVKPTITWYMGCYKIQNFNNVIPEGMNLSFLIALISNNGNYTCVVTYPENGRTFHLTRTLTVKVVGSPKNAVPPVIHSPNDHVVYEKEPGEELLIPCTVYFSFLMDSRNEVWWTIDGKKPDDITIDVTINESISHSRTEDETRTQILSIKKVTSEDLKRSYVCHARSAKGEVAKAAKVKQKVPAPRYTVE

T2: human IL-36R extracellular domain expressed with a C-terminal mouse IgG2a Fc tag (hIL-36R-mFc) (human; mouse, UniProt Q9HB29 20-337)
T2 construct: not shown: mouse IgG2a Fc, E98-K330
T2 sequence (looked up): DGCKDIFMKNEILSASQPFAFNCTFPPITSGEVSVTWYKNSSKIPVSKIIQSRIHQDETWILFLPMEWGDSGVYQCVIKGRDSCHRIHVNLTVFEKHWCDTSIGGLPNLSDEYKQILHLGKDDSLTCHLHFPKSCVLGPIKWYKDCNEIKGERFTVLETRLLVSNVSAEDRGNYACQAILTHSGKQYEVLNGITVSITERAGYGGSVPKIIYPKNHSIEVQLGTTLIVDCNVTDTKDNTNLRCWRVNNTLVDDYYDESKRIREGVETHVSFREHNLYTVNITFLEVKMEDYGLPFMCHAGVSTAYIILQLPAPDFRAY

B1: H4H14699P2 (antibody, human IgG4 S228P, kappa, V domains shown)
VH: EVQLVESGGGLVQPGRSLRLSCAASGFTFDDYAIHWVRQAPGKGLEWVSVISWNSDIIGYADSVKGRFTVSRDNAKNSLYLQMNSLRTEDTALYYCAKGYNWNFFDYWGQGTLVTVSS
VL: EIVLTQSPATLSLSPGERATLSCRASQSVSSYLAWYQQKPGQAPRLLIYNAANRATDIPARFSGSGSGTDFTLTISSLEPEDFAVYYCQQRSNWPLTFGGGTKVEIKR
notes: Fully human anti-IL-36R antibody
B2: H4H14708P2 (antibody, human IgG4 S228P, kappa, V domains shown)
VH: B1 VH with G10D, I34M, I57V, G59A, A61S, V70I, A97T, Y100H, N101K, N103S
VL: B1 VL with V29I, Y49F, A51V
notes: as for B1
B3: H4H14706P2 (antibody, human IgG4 S228P, kappa, V domains shown)
VH: B1 VH with A23T, A40S, I57V, V70I, T88A
VL: B1 VL
notes: as for B1
B4: H4H14700P2 (antibody, human IgG4 S228P, kappa, V domains shown)
VH: B1 VH with I34M, A40T, I57V, G59A, A61S, V70I, R87G, Y100H
VL: B1 VL with A51V, S77G, Y87F
notes: as for B1

What follows are binders tested against T1, in-line fusion protein of human IL-36R … (assay: SPR Biacore 4000, mAb captured on anti-hFc, 25C).
Protocol: (§1) Equilibrium dissociation constants (KD values) for IL-36R binding to purified anti-IL-36R antibodies were determined using a real-time surface plasmon resonance biosensor using a Biacore 4000 instrument. The Biacore sensor surface was first derivatized by amine coupling with a monoclonal mouse anti-human Fc antibody (GE, # BR-1008-39) to capture anti-IL-36R monoclonal antibodies. All binding studies were performed in 0.01 M Hepes pH 7.4, 0.15 M NaCl, 3 mM EDTA, and 0.05% v/v Surfactant Tween-20 (HBS-ET running buffer) at 25° C. and 37° C. Different concentrations of IL-36R reagents, human IL-36R extracellular domain expressed with a C-terminal myc-myc-hexahistidine tag (hIL-36R-MMH), Macaca fascicularis IL-36R extracellular domain expressed with a C-terminal myc-myc-hexahistidine tag (mfIL-36R-MMH: mROR1 signal sequence (M1-A29). Macaca fascicularis IL36R_ecto domain (D20-A336).mycmycHis6), human IL-36R extracellular domain expressed with a C-terminal mouse IgG2a Fc tag (hIL-36R-mFc: mROR1 signal sequence (M1-A29)-human IL36R (D20-Y337)-mouse IgG2aFc (E98-K330)) or an in-line fusion protein of human IL-36R extracellular domain and IL1RAcP extracellular domain expressed with mouse IgG2a Fc tag (hIL-36R-Trap-mFc: mROR1 signal sequence (M1-A29)-human IL36R ecto domain (D20-Y337)-human IL1RacP ecto domain(S21-E359)-mouse IgG2aFc) in HBS-ET running buffer (ranging from 100 nM to 3.7 nM, 3-fold dilutions) were injected over the anti-IL-36R antibody captured surface for 4 minutes at a flow rate of 30 μL/minute and their dissociation in HBS-ET running buffer was monitored for 10 minutes. Kinetic association rate constant (kₐ) and dissociation rate constant (kd) were determined by fitting the real-time sensorgrams to a 1:1 binding model using Scrubber 2.0c curve fitting software. Binding dissociation equilibrium constants (KD) and dissociative half-lives (t_{1/2}) were calculated from the kinetic rate constants as: […]

100 nM hIL-36R-Trap-mFc Bound (RU)	Kd [nM]	koff [s⁻¹]	kon [M⁻¹ s⁻¹]	t1/2 [min]	Binder
188	0.458	0.000228	498000	51	B1
172	0.357	0.000129	361000	90	B2
205	0.232	0.00011	477000	105	B3
157	0.283	0.000125	442000	92	B4

These binders were tested against T2, human IL-36R extracellular domain … (assay: SPR Biacore 4000, mAb captured on anti-hFc, 25C).
Protocol: as §1

100 nM hIL-36R-mFc Bound (RU)	Kd [nM]	koff [s⁻¹]	kon [M⁻¹ s⁻¹]	t1/2 [min]	Binder
150	0.359	0.000203	564000	57	B1
146	0.317	0.000128	403000	90	B2
163	0.23	0.000132	575000	87	B3
128	0.233	0.00012	517000	96	B4

These binders were tested against T3, human IL-36R extracellular domain expressed with a C-terminal myc-myc-hexahistidine tag (hIL-36R-MMH) (human, UniProt Q9HB29 20-337) (assay: SPR Biacore T200, mAb captured on anti-hFc, 25C, PBS-T pH 7.4 running buffer).
T3 construct: also called Human IL-36R-MMH; REGN2105
T3 sequence (Q9HB29 other isoform, or with tags, fused parts or gaps limits assumed): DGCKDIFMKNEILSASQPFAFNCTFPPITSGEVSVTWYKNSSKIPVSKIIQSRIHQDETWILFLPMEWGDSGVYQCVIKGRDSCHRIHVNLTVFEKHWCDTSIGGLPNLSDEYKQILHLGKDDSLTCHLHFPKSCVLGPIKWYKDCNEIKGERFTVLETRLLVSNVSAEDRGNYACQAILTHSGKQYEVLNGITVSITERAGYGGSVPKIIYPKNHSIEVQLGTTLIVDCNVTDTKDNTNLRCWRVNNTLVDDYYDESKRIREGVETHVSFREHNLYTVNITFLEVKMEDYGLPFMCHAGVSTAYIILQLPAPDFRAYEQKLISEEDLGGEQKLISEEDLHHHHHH
Protocol: (§2) Additional binding experiments were performed to determine the effect of pH on the rate of dissociation of IL-36R bound to purified anti-IL-36R antibodies, which was determined using a real-time surface plasmon resonance biosensor using a Biacore T200 instrument. The Biacore sensor surface was first derivatized by amine coupling with a monoclonal mouse anti-human Fc antibody (GE, # BR-1008-39) to capture anti-IL-36R antibodies. […] Different concentrations of hIL-36R-MMH and mfIL-36R-MMH prepared in PBS-T, pH7.4 buffer (ranging from 100 nM to 11.11 nM, 3-fold dilutions) were injected over the anti-IL-36R antibody captured surface for 4 minutes at a flow rate of 50 μL/minute and their dissociation in two running buffers, PBS-T, pH7.4 and PBS-T, pH 6.0, was monitored for 10 minutes. All of these binding kinetics experiments were performed at 25° C. and 37° C. Kinetic dissociation constant (kd) were determined by fitting the real-time sensorgrams to a 1:1 binding model using Scrubber 2.0c curve fitting software. Binding dissociative half-lives (t_{1/2}) were calculated from kd as: […]

100 nM Human IL-36R-MMH Bound (RU)	koff [s⁻¹]	t1/2 [min]	Binder
84	0.00193	6	B1
87	0.000796	15	B2
119	0.000616	19	B3
128	0.000795	15	B4

What follows are binders tested against T3, human IL-36R extracellular domain … (assay: SPR Biacore T200, mAb captured on anti-hFc, 25C, PBS-T pH 6.0 running buffer).
Protocol: as §2

100 nM Human IL-36R-MMH Bound (RU)	koff [s⁻¹]	t1/2 [min]	Binder
79	0.00293	4	B1
79	0.00163	7	B2
109	0.000927	12	B3
120	0.00172	7	B4

What follows are binders tested against T3, human IL-36R extracellular domain … (assay: SPR Biacore T200, mAb captured on anti-hFc, 37C, PBS-T pH 6.0 running buffer).
Protocol: as §2

100 nM hIL-36R-MMH Bound (RU)	koff [s⁻¹]	t1/2 [min]	Binder
83	0.00581	2	B1
95	0.00337	3	B2
132	0.00233	5	B3
144	0.0035	3	B4

Each binder was assayed against T1, in-line fusion protein of human IL-36R … (assay: SPR Biacore 4000, mAb captured on anti-hFc, 37C).
Protocol: as §1

100 nM hIL-36R-Trap-mFc Bound (RU)	Kd [nM]	koff [s⁻¹]	kon [M⁻¹ s⁻¹]	t1/2 [min]	Binder
229	1.06	0.000513	484000	23	B1
239	0.656	0.000253	385000	46	B2
264	0.551	0.000271	491000	43	B3
216	0.555	0.000253	455000	46	B4

What follows are binders tested against T2, human IL-36R extracellular domain … (assay: SPR Biacore 4000, mAb captured on anti-hFc, 37C).
Protocol: as §1

100 nM hIL-36R-mFc Bound (RU)	Kd [nM]	koff [s⁻¹]	kon [M⁻¹ s⁻¹]	t1/2 [min]	Binder
186	0.767	0.000456	594000	25	B1
203	0.435	0.0002	460000	58	B2
207	0.449	0.000266	593000	43	B3
174	0.39	0.000209	535000	55	B4

Each binder was assayed against T3, human IL-36R extracellular domain … (assay: SPR Biacore T200, mAb captured on anti-hFc, 37C, PBS-T pH 7.4 running buffer).
Protocol: as §2

100 nM hIL-36R-MMH Bound (RU)	koff [s⁻¹]	t1/2 [min]	Binder
96	0.00415	3	B1
105	0.00177	7	B2
140	0.00131	9	B3
153	0.00169	7	B4
